Laboratory results taken from article PMC12990809.

Experiments:
Assay in all cases: pulldown
[1] = target: T1, Tb11.01.3940 (Trypanosoma brucei) (UniProt Q382W9); conditions: 20 nM protein, 1.5 uM RNA pool; 20 mM HEPES pH 7.8, 70 mM KCl, 10 mM NaCl, 10% glycerol, 2 mM DTT, 0.1 ug/uL BSA; 30 min, 4 C
T1 sequence: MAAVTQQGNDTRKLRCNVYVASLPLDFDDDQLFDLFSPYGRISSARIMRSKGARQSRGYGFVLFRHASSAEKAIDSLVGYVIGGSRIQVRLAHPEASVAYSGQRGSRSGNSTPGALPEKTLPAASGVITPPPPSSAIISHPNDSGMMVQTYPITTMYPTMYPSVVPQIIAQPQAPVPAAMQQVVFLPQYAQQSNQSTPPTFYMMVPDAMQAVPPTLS

[2] = target: T2, CG1316 G229S (Drosophila melanogaster) (UniProt Q7JRD2); conditions: 20 nM protein, 1.5 uM RNA pool; 20 mM HEPES pH 7.8, 70 mM KCl, 10 mM NaCl, 10% glycerol, 2 mM DTT, 0.1 ug/uL BSA; 30 min, 4 C
T2 sequence: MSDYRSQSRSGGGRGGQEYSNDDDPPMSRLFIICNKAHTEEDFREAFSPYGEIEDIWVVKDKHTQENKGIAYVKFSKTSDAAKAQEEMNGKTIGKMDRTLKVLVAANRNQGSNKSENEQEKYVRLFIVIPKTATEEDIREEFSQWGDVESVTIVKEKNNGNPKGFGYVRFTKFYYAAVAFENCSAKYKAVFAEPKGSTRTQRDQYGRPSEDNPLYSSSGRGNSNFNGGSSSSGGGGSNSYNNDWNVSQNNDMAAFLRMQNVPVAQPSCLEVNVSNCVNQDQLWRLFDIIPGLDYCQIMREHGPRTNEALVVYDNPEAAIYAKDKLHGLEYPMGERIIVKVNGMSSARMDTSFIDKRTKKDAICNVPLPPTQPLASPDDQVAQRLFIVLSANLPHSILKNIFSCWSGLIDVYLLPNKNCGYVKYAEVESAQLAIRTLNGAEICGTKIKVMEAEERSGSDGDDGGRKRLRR

[3] = target: T3, LmjF.27.2100 (Leishmania major) (UniProt E9ADJ0); conditions: 20 nM protein, 1.5 uM RNA pool; 20 mM HEPES pH 7.8, 70 mM KCl, 10 mM NaCl, 10% glycerol, 2 mM DTT, 0.1 ug/uL BSA; 30 min, 4 C
T3 sequence: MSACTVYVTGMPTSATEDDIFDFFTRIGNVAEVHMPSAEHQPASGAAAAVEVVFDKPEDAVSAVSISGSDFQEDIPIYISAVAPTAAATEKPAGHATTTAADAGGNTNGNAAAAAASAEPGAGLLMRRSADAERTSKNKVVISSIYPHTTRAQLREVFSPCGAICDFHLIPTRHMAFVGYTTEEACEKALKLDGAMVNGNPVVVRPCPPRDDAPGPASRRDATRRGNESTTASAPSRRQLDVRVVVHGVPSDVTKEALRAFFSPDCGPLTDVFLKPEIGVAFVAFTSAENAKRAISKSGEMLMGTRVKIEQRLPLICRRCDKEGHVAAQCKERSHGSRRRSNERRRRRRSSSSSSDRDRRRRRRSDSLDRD

[4] = target: T4, Hrb87F (Drosophila melanogaster) (UniProt P48810); conditions: 20 nM protein, 1.5 uM RNA pool; 20 mM HEPES pH 7.8, 70 mM KCl, 10 mM NaCl, 10% glycerol, 2 mM DTT, 0.1 ug/uL BSA; 30 min, 4 C (protocol of this paper; not …); cited from earlier work
T4 sequence: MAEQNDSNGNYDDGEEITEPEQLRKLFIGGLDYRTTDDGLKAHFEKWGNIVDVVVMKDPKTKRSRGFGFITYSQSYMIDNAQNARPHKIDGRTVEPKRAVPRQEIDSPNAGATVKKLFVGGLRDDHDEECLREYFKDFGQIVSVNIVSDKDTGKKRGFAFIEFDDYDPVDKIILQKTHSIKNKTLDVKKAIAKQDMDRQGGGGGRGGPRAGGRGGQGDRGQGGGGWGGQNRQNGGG

hnrnpa0a (Danio rerio) = hnrnpa0a (Danio rerio) (UniProt Q6NYB0); conditions: 20 nM protein, 1.5 uM RNA pool; 20 mM HEPES pH 7.8, 70 mM KCl, 10 mM NaCl, 10% glycerol, 2 mM DTT, 0.1 ug/uL BSA; 30 min, 4 C
Chain of hnrnpa0a (Danio rerio) (Q6NYB0 entry or part of it): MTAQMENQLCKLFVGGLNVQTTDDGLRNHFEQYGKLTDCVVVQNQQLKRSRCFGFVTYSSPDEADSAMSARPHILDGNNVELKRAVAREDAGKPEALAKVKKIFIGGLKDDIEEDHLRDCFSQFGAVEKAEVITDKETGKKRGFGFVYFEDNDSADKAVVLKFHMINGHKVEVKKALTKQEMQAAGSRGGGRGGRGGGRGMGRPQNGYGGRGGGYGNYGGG

[5] = target: T5, LmjF.25.0500 (Leishmania major) (UniProt Q4QA45); conditions: 20 nM protein, 1.5 uM RNA pool; 20 mM HEPES pH 7.8, 70 mM KCl, 10 mM NaCl, 10% glycerol, 2 mM DTT, 0.1 ug/uL BSA; 30 min, 4 C
T5 sequence: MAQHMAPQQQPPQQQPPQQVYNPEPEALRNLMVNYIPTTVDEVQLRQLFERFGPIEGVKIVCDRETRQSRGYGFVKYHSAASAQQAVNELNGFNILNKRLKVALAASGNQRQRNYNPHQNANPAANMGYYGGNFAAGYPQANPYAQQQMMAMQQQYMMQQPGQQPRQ

[6] = target: T6, HRP1 (Saccharomyces cerevisiae) (UniProt Q99383); conditions: 20 nM protein, 1.5 uM RNA pool; 20 mM HEPES pH 7.8, 70 mM KCl, 10 mM NaCl, 10% glycerol, 2 mM DTT, 0.1 ug/uL BSA; 30 min, 4 C (protocol of this paper; not …); cited from earlier work
T6 sequence: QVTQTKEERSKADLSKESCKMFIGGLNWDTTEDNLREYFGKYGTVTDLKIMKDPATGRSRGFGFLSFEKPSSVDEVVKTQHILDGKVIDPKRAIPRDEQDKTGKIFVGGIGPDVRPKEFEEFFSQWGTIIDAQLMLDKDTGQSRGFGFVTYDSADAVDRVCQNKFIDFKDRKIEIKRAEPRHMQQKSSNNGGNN

tardbpl (Danio rerio) = target: T7, tardbpl (Danio rerio) (UniProt A0A8M1PDP8); conditions: 20 nM protein, 1.5 uM RNA pool; 20 mM HEPES pH 7.8, 70 mM KCl, 10 mM NaCl, 10% glycerol, 2 mM DTT, 0.1 ug/uL BSA; 30 min, 4 C
T7 sequence: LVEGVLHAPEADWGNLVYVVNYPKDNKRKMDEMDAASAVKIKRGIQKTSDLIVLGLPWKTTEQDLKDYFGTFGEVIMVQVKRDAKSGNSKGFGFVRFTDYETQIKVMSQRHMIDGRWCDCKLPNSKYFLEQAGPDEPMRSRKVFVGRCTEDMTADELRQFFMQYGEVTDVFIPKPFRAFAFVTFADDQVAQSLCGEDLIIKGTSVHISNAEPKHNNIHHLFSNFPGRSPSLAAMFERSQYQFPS

[7] = target: T8, aret (Drosophila melanogaster) (UniProt E1JHG6); conditions: 20 nM protein, 1.5 uM RNA pool; 20 mM HEPES pH 7.8, 70 mM KCl, 10 mM NaCl, 10% glycerol, 2 mM DTT, 0.1 ug/uL BSA; 30 min, 4 C (protocol of this paper; not …); cited from earlier work
T8 sequence: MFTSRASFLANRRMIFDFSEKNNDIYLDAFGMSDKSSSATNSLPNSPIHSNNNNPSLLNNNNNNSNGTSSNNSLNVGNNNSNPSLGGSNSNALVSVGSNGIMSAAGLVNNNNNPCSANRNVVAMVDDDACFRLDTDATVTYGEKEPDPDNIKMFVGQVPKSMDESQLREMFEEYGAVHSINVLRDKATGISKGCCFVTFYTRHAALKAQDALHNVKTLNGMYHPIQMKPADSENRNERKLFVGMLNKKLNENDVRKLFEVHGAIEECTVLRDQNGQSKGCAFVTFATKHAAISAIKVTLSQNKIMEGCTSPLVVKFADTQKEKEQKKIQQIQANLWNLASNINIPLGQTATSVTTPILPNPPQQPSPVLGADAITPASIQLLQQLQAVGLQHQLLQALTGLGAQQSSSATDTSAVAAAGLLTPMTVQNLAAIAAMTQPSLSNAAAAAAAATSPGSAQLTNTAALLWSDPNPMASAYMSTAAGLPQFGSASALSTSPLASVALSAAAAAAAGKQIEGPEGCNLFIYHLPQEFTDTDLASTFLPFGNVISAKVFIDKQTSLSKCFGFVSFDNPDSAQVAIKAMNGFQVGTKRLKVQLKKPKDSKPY

Substance: CUUAACC [RNAcompete motif RNCMPT00695]
- binding signal (z-score (mean of top ten 7-mers)) [1]: 14.8

Substance: GACNGAC [RNAcompete motif RNCMPT00698]
- binding signal (z-score (mean of top ten 7-mers)) [2]: 10.1

Substance: GGAGGA [RNAcompete motif RNCMPT00667]
- binding signal (z-score (mean of top ten 7-mers)) [3]: 6.1

Substance: GGUAGGG [RNAcompete motif RNCMPT00029]
- binding signal (z-score (mean of top ten 7-mers)) [4]: 13.4

Substance: UAGGA [RNAcompete motif RNCMPT00677]
- binding signal (z-score (mean of top ten 7-mers)) (hnrnpa0a (Danio rerio)): 9.94

Substance: UAGUUU [RNAcompete motif RNCMPT00689]
- binding signal (z-score (mean of top ten 7-mers)) [5]: 11.6

Substance: UAUGUA [RNAcompete motif RNCMPT00031]
- binding signal (z-score (mean of top ten 7-mers)) [6]: 23.4

Substance: UGAAUG [RNAcompete motif RNCMPT00683]
- binding signal (z-score (mean of top ten 7-mers)) (tardbpl (Danio rerio)): 11.3

Substance: UNUGUGU [RNAcompete motif RNCMPT00003]
- binding signal (z-score (mean of top ten 7-mers)) [7]: 21.4
